From article doi:10.1101/2023.06.06.543845 (bioRxiv, 2023)

Tests used:
[1] = target: T1, Mycobacterium tuberculosis NrdI (Mycobacterium tuberculosis, UniProt P9WIZ3); assay: crystal structure
T1 sequence: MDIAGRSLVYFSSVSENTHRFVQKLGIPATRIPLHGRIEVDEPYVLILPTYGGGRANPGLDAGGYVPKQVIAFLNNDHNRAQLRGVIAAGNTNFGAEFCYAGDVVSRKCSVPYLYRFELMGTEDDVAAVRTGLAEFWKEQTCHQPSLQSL

crystal structure = target: the molecule itself; assay: crystal structure

B1: Mycobacterium tuberculosis NrdF2 (R2 subunit of the Class Ib ribonucleotide reductase) (enzyme)
chain: TGNAKLIDRVSAINWNRLQDEKDAEVWDRLTGNFWLPEKVPVSNDIPSWGTLTAGEKQLTMRVFTGLTMLDTIQGTVGAVSLIPDALTPHEEAVLTNIAFMESVHAKSYSQIFSTLCSTAEIDDAFRWSEENRNLQRKAEIVLQYYRGDEPLKRKVASTLLESFLFYSGFYLPMYWSSRAKLTNTADMIRLIIRDEAVHGYYIGYKFQRGLALVDDVTRAELKDYTYELLFELYDNEVEYTQDLYDEVGLTEDVKKFLRYNANKALMNLGYEALFPRDETDVNPAILSALSPNADENHDFFSGSGSSYVIGKAVVTEDDDWDF
Q: What does the source list for B1?
A: stoichiometry N [1]: 2 NrdF2 per NrdI; stoichiometry N (crystal structure): 2
